Results published in publication PMC3433420, “Comprehensive Binary Interaction Mapping of SH2 Domains via Fluorescence Polarization Reveals Novel Functional Diversification of ErbB Receptors” (PLoS ONE, 2012).
“And” between values parts separate entries of the source, which are not always exact repeats. Identical values can stand only once. Non-standard residues stand in square brackets, D forms with d. No end group written: not given here. pY = N[C@@H](Cc1ccc(OP(=O)(O)O)cc1)C(=O)O; Rhodamine = not defined here; rhodamine = not defined here

How the values were obtained:
Details in all cases: both partners purified
GRAP2 SH2 domain = target: T1, GRAP2 SH2 domain (human, UniProt O75791 58-149); assay: peptide or protein array; SH2/PTB proteins spotted on aldehyde slides, rhodamine peptide titrated in buffer B (20 mM HEPES, 100 mM KCl, 0.1% Tween-20, 5 mM DTT, pH 7.8), 1 h at room temperature; replicate assays
T1 construct: GRAP2, human; source: bacterial expression, purified
T1 sequence (looked up): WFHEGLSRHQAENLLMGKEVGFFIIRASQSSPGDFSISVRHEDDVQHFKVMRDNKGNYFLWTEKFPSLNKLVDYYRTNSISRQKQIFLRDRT

ITK SH2 domain = target: T2, ITK SH2 domain (human, UniProt Q08881 239-338); assay: as above
T2 construct: ITK, human; source: bacterial expression, purified
T2 sequence (looked up): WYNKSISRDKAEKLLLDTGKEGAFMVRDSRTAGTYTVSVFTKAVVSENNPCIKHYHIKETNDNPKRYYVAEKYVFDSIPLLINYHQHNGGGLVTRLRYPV

ABL2 SH2 domain = target: T3, ABL2 SH2 domain (human, UniProt P42684 173-263); assay: as above
T3 construct: ABL2, human; source: bacterial expression, purified
T3 sequence (looked up): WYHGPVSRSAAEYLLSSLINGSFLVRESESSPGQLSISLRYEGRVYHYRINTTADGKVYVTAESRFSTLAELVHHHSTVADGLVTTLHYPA

LCK SH2 domain = target: T4, LCK SH2 domain (human, UniProt P06239 127-224); assay: as above
T4 construct: LCK, human; source: bacterial expression, purified

BLK SH2 domain = target: T5, BLK SH2 domain (human, UniProt P51451 124-220); assay: as above
T5 construct: BLK, human; source: bacterial expression, purified

SH2D3A SH2 domain = target: T6, SH2D3A SH2 domain (human, UniProt Q9BRG2 15-114); assay: as above
T6 construct: SH2D3A, human; source: bacterial expression, purified

BLNK SH2 domain = target: T7, BLNK SH2 domain (human, UniProt Q8WV28 346-453); assay: as above
T7 construct: BLNK, human; source: bacterial expression, purified
T7 sequence (looked up): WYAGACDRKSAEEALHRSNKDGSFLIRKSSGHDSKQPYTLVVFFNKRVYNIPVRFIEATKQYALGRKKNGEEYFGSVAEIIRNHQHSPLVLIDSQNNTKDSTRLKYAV

SHF SH2 domain = target: T8, SHF SH2 domain (human, UniProt Q7M4L6 323-418); assay: as above
T8 construct: SHF, human; source: bacterial expression, purified
T8 sequence (looked up): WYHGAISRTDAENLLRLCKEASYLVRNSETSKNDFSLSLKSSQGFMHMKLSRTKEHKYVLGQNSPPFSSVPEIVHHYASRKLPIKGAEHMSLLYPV

STAP1 SH2 domain = target: T9, STAP1 SH2 domain (human, UniProt Q9ULZ2 177-280); assay: as above
T9 construct: STAP1, human; source: bacterial expression, purified
T9 sequence (looked up): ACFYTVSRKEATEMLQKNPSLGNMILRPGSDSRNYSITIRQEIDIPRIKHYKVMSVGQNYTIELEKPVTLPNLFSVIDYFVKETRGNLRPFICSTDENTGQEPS

SUPT6H SH2 domain = target: T10, SUPT6H SH2 domain (human, UniProt Q7KZ85 1325-1431); assay: as above
T10 construct: SUPT6H, human; source: bacterial expression, purified

YES1 SH2 domain = target: T11, YES1 SH2 domain (human, UniProt P07947 158-255); assay: as above
T11 construct: YES1, human; source: bacterial expression, purified

SYK tandem SH2 domains = SYK tandem SH2 domains (human); assay: as above
SHC1 domain construct = target: T12, SHC1 domain construct (human); assay: as above
T12 chain: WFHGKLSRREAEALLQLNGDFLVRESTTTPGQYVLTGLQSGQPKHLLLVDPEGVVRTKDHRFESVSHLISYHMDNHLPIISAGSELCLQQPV

GRB7 SH2 domain = target: T13, GRB7 SH2 domain (human, UniProt Q14451 431-527); assay: fluorescence polarisation; saturation binding in solution: rhodamine peptide fixed at 10 nM, protein titrated 0.002-10 uM, 20 min at room temperature; assay buffer 20 mM HEPES, 100 mM KCl, 0.1% Tween-20, 5 mM DTT, pH 7.8; apparent KD
T13 construct: GRB7, human; source: bacterial expression, purified

PTK6 SH2 domain = target: T14, PTK6 SH2 domain (human, UniProt Q13882 78-170); assay: as above
T14 construct: PTK6, human; source: bacterial expression, purified

[1] = target: T15, PIK3R1 N-terminal SH2 domain (human); assay: SPR; Biacore 3000; 6X His SH2 proteins held on a Ni-NTA chip, dye-free peptides in solution, equilibrium
T15 construct: PIK3R1, human; source: bacterial expression, purified

[2] = target: T16, PIK3R3 C-terminal SH2 domain (human); assay: as above
T16 construct: PIK3R3, human; source: bacterial expression, purified

[3] = target: T17, PLCG1 C-terminal SH2 domain (human); assay: as above
T17 construct: PLCG1, human; source: bacterial expression, purified
T17 sequence (P19174 whole entry, looked up): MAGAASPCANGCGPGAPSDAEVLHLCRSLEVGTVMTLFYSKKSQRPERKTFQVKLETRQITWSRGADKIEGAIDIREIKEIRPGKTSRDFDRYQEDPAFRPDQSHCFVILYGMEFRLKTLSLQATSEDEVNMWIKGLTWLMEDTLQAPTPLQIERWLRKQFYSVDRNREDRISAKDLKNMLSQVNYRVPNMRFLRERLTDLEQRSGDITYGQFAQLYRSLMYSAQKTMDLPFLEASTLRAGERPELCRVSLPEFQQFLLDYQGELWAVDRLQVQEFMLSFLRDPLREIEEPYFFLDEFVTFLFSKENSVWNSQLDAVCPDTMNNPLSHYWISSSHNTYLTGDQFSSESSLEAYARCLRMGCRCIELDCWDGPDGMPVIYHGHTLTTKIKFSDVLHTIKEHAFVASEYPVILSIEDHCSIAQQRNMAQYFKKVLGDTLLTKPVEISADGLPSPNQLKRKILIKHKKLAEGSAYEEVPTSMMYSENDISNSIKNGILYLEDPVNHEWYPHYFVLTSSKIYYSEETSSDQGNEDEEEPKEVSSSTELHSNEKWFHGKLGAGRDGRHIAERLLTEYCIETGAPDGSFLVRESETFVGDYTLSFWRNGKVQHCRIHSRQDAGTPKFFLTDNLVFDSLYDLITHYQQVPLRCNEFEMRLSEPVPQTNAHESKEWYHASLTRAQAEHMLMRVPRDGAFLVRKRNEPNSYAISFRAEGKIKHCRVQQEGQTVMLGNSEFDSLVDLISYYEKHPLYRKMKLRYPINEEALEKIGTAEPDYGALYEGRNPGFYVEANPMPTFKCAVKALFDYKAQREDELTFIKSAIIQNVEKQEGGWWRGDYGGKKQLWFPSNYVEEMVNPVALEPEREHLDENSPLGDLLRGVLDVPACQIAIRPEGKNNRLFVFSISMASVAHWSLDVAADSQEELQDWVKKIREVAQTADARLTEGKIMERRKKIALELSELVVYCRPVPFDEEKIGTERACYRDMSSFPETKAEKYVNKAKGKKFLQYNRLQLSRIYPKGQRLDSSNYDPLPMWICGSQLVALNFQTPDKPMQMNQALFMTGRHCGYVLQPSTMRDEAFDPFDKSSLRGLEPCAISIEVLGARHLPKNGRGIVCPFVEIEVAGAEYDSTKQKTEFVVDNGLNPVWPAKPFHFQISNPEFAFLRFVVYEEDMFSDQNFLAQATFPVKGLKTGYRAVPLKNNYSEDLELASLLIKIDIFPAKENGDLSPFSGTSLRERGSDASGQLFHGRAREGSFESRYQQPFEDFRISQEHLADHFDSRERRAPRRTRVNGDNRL

[4] = target: T18, SYK C-terminal SH2 domain (human); assay: as above
T18 construct: SYK, human; source: bacterial expression, purified

TNS3 SH2 domain = target: T19, TNS3 SH2 domain (human, UniProt Q68CZ2 1172-1282); assay: as above
T19 construct: TNS3, human; source: bacterial expression, purified
T19 sequence (looked up): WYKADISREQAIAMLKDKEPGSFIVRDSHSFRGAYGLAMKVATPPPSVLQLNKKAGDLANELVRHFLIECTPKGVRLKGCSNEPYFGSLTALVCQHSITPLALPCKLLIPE

VAV2 SH2 domain = target: T20, VAV2 SH2 domain (human, UniProt P52735 673-767); assay: as above
T20 construct: VAV2, human; source: bacterial expression, purified
T20 sequence (looked up): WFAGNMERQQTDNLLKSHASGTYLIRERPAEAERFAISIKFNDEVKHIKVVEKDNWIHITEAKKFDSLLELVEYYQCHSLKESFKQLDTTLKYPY

SRC SH2 domain = target: T21, SRC SH2 domain (human, UniProt P12931-1 151-248); assay: fluorescence polarisation; saturation binding in solution: rhodamine peptide fixed at 10 nM, protein titrated 0.002-10 uM, 20 min at room temperature; assay buffer 20 mM HEPES, 100 mM KCl, 0.1% Tween-20, 5 mM DTT, pH 7.8; apparent KD
T21 construct: SRC, human; also called c-Src; source: bacterial expression, purified

T5 sequence (P51451 124-220): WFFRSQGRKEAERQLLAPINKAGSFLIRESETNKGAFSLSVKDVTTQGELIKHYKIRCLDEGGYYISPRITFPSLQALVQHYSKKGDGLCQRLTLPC
T4 sequence (P06239 127-224): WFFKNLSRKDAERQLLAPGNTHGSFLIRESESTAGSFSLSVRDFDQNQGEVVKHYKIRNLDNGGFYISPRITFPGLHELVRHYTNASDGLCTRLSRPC
T11 sequence (P07947 158-255): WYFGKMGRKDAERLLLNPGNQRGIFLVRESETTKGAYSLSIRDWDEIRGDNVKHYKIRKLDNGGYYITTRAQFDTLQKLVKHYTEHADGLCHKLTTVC
T13 sequence (Q14451 431-527): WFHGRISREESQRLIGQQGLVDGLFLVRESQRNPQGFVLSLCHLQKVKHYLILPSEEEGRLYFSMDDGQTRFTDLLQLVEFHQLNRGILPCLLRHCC
T14 sequence (Q13882 78-170): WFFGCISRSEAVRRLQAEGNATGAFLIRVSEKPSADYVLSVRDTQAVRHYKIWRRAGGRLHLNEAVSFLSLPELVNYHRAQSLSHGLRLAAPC
T6 sequence (Q9BRG2 15-114): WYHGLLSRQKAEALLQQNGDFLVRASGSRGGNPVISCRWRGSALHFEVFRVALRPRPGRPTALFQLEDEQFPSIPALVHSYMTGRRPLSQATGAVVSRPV
T10 sequence (Q7KZ85 1325-1431): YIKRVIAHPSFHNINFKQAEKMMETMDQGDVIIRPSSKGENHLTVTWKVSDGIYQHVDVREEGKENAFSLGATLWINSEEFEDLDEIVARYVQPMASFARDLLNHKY

Rhodamine-PLQR[pY]SEDPTVPD (reading uncertain) [ErbB2 pY1112 phosphopeptide, rhodamine-labelled, for protein microarrays]
Kd (GRAP2 SH2 domain): 7150 nM
Kd (ITK SH2 domain): 52900 nM
Kd (ABL2 SH2 domain): 1840 nM
Kd (LCK SH2 domain): 10300 nM and 8930 nM
Kd (BLK SH2 domain): 3220 nM and 1170 nM and 2070 nM
Kd (SH2D3A SH2 domain): 26600 nM
Kd (BLNK SH2 domain): 4900 nM
Kd (SHF SH2 domain): 2970 nM
Kd (STAP1 SH2 domain): 50 nM
Kd (SUPT6H SH2 domain): 1040 nM
Kd (YES1 SH2 domain): 720 nM and 1600 nM
Kd (SYK tandem SH2 domains): 893 nM and 803 nM
Kd (SHC1 domain construct): 1260 nM and 3060 nM

B1: ErbB3pY1197 phosphopeptide, rhodamine-labelled (peptide)
peptide: Rhodamine-EDEE[pY]EYMNRRRD
modifications: reading uncertain
notes: human ErbB3 around Tyr1197; also called labeled peptide 4; source: synthetic peptide
Kd (GRB7 SH2 domain): 130 nM
Kd (PTK6 SH2 domain): 5790 nM

PDPL[pY]EVMLKCW [MET pY1313 phosphopeptide, dye-free]
Kd [1]: 53 nM
Kd [2]: 56 nM
Kd [3]: 486 nM
Kd [4]: 1660 nM
Kd (TNS3 SH2 domain): 132 nM
Kd (VAV2 SH2 domain): 2510 nM

B2: ErbB3pY1222 phosphopeptide, rhodamine-labelled (peptide)
peptide: rhodamine-EELG[pY]EYMDVGSD
modifications: reading uncertain
notes: human ErbB3 around Tyr1222; also called labeled peptide 5; source: synthetic peptide
Kd (SRC SH2 domain): 2330 nM
